The text below walks through data of paper PMC6075780, “Interaction of lipoprotein QseG with sensor kinase QseE in the periplasm controls the phosphorylation state of the two-component system QseE/QseF in Escherichia coli” (PLoS Genetics, 2018).

One experiment has as its target T18-QseE (pYG246). The experiment can be described thus: BACTH assay (bacterial two-hybrid, β-galactosidase read-out), homodimerization. Particulars: reporter strain BTH101; plasmids pYG246/pYG199_TM1; parent: est. 3600; read off a plot.
Experiment [1] deals with T1, QseG-Strep (E. coli K-12, UniProt P0AD44 26-237, Cys26 predicted by the paper to be lipidated).
T1 sequence (looked up): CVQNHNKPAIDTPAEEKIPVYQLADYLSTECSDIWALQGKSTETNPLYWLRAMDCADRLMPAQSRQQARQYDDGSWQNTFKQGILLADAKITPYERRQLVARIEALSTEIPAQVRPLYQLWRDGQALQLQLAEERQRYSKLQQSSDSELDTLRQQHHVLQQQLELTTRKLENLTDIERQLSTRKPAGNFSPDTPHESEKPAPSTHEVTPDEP
Nature of the experiment: cell-based or functional assay.

Experiment [2] deals with T1, QseG-Strep. Nature of the experiment: pull-down; bait and prey from two compatible plasmids in E. coli Z970 (1 mM IPTG, 0.2% arabinose, 3 h); cleared lysates with MagStrep type3 XT beads 60 min at 4°C, washed 4× with buffer W; Western blot. Particulars: partners not purified. (In western blotting, separated proteins are transferred to a membrane and probed.)

On to “T25-QseE (from UniProt P52101) F19L; L21H; I22R; L23P; L24P”, for which, in the experiment with T18-QseE (pYG246), the response worked out at 1000 Miller units.

B1: QseE-S58N-3×FLAG (natural protein, E. coli K-12, UniProt P52101 1-475, looked up)
chain: MKRWPVFPRSLRQLVMLAFLLILLPLLVLAWQAWQSLNALSDQAALVNRTTLIDARRNEAMTNAALEMERSYRQYCVLDDPTLAKVYQSQRKRYSEMLDAHAGVLPDDKLYQALRQDLHNLAQLQCNNSGPDAAAAARLEAFASANTEMVQATRTVVFSRGQQLQREIAERGQYFGWQSLVLFLVSLVMVLLFTRMIIGPVKNIERMINRLGEGRSLGNSVSFSGPSELRSVGQRILWLSERLSWLESQRHQFLRHLSHELKTPLASMREGTELLADQVVGPLTPEQKEVVSILDSSSRNLQKLIEQLLDYNRKQADSAVELENVELAPLVETVVSAHSLPARAKMMHTDVDLKATACLAEPMLLMSVLDNLYSNAVHYGAESGNICLRSSLHGARVYIDVINTGTPIPQEERAMIFEPFFQGSHQRKGAVKGSGLGLSIARDCIRRMQGELYLVDESGQDVCFRIELPSSKNTK
notes: Histidine kinase QseE of E. coli K-12 with the S58N exchange in the periplasmic loop; also called QseE-S58N variant; source: E. coli strain Z970, from plasmid pYG318-S58N, in lysate; not shown: 3×FLAG, C-terminal, kept
As for B1, in the experiment with QseG-Strep [1], the “fold decrease in glmY'-lacZ β-galactosidase activity of the ΔqseE strain Z970 complemented with plasmid-encoded QseE-S58N (pYG221-S58N), against wild-type QseE (pYG221)” value was 3 fold. Also, in the experiment with QseG-Strep [2], the “fold reduction of co-purifying protein against wild-type QseE-3×FLAG” value is approximately 3 fold.
